Consider 7 molecules from patent publication US20090111753A1, “Nogo-A Polypeptide Fragments, Variant Nogo Receptor-1 Polypeptides, and Uses Thereof” (Yale University, priority 2004, published 2009).

The Kd is the equilibrium constant for the complex coming apart.

The target in one assay is T1, NgR (Homo sapiens, UniProt Q9BZR6).
T1 construct: expressed in transfected cells; host or cells: COS-7
T1 sequence (Q9BZR6 27-447): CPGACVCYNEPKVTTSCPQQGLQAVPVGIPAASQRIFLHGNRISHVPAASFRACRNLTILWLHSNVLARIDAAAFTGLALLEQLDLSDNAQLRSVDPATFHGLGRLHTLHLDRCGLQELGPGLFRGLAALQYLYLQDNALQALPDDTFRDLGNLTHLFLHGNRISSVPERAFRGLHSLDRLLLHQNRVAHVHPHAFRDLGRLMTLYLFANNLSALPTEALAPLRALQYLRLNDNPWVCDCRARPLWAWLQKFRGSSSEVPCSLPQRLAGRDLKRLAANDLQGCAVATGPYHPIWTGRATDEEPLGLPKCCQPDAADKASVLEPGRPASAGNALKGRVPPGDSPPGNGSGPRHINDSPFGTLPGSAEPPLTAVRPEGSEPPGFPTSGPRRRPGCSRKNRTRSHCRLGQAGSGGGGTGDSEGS
Description: AP fusion protein binding to NgR expressing COS-7 cells. From the text:
Several alkaline phosphatase (AP) fusion proteins containing various Nogo-A segments derived from regions between the amino terminus and the first hydrophobic segment were examined to identify the mechanism of Amino-Nogo-A action. To generate additional AP fusion proteins, human amino Nogo fragments were amplified and ligated to the pcAP6 vector digested with restriction enzymes EcoRI and XhoI as described (Fournier, A. E., et al., Nature 409:341-346 (2001)). Plasmids were then transfected into HEK293T cells and conditioned media were collected after 7 days. None of these fragments bind with high affinity to non-transfected COS-7 cells. […] This binding is saturable with a Kd indistinguishable from that for AP-Nogo-66 association with NgR (Table I). To better define the region responsible for Amino-Nogo interaction with NgR, a range of truncation mutants of Amino-Nogo were examined as AP fusion proteins. […] In fact, the NgR-interacting segment of Amino-Nogo is fully accounted for in the extreme carboxyl 24 amino acids (aa 995-1018, Amino-Nogo-A-24) (Table I and FIG. 1D). […] We named this domain (aa 995-1013) as Amino-Nogo-A-19.
Binding Kds for AP fused Amino-Nogo fragments were measured by applying conditioned media containing AP fusion protein to NgR expressing COS-7 cells. Bound AP was stained and measured.
It has been recognized that the Amino-Nogo-A protein inhibits non-neuronal cell spreading and axonal outgrowth when the protein is substrate bound (Chen, M. S., et al., Nature 403:434-439 (2000); Fournier, A. E., et al., Nature 409:341-346 (2001)). […] The later domain has been termed Δ20. To determine whether the NgR-interacting aa of Amino-Nogo-A described in Example 1 regulate cell spreading and axonal outgrowth, various fragments were expressed as GST fusion proteins and purified from E. coli. To generate GST fusion proteins, amino Nogo fragments were cloned in pGEX2T (Amersham Pharmacia). Native and soluble GST fusion proteins were expressed and purified as described (GrandPre, T., et al., Nature 403:439-444 (2000)). COS-7 binding assays were done as described (Fournier, A. E., et al., Nature 409:341-346 (2001)). Bound AP to COS-7 cells was measured using NIH image software. Fibroblast spreading and cDRG outgrowth assay were done as described (Fournier, A. E., et al., Nature 409:341-346 (2001)) with some modifications. Briefly, 50 μl of purified GST fusion protein or peptides diluted in PBS was pipetted into polylysine precoated 96 well plates (Becton Dickson Biocoat plates) and dried overnight at room temperature. For fibroblast spreading assay, subconfluent COS-7 cells were then plated for 1 hour in serum containing medium before fixation and staining with rho damine-phalloidin.

The subject of a further assay is NgR ligands. Put plainly: Binding of alanine substituted NgR mutants to NgR ligands, summary categories. To be noted: AP-Nogo66, AP-B4C, AP-B4C66, AP-Lingo-1, AP-OMgp and AP-MAG; compared to wild type NgR. The essentials:
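AP-fused ligands (Nogo66, B4C, B4C66, Lingo-1, OMgp, MAG) were assayed against 74 Ala-substitution mutants of human NgR1 targeting surface charged patches, glycosylation sites and predicted binding regions, plus the D259N variant. Outcomes were grouped into categories: binding lost for all ligands, retained for all, or ligand-selective.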

The target of another assay is T2, AP-Nogo-66 (UniProt Q9NQC3 1055-1120).
T2 construct: domain: Nogo-66; construct described elsewhere (Fournier 2001); also called AP-Ng66; Ng66; not shown: alkaline phosphatase (AP); construct described elsewhere
T2 sequence (looked up): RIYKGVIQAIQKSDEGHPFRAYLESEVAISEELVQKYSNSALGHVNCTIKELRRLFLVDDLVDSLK
Put plainly: AP-ligand binding, COS-7.

The target in assay [1] is T3, AP fusion protein with the B4C fragment of Amino-Nogo-A fused directly to Nogo-66 (human, UniProt Q9NQC3 1055-1120).
T3 construct: domain: Nogo-66; also called AP-B4C66; AP-B4C-66; not shown: alkaline phosphatase (AP), vector pcAP6
T3 sequence: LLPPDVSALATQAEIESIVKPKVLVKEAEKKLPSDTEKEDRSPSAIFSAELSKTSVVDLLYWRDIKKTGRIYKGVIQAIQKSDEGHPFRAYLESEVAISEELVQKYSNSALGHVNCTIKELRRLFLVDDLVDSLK
Put plainly: AP-ligand binding, COS-7.

In assay [2] the target is T4, AP-fused Amino-Nogo fragment B4C (a.a. 950-1018) (human, UniProt Q9NQC3 950-1018).
T4 construct: also called AmNg B4C; AP-B4C; not shown: alkaline phosphatase (AP), vector pcAP6
T4 sequence: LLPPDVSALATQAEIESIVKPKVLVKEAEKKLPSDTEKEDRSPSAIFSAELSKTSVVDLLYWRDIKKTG
Put plainly: AP-ligand binding, COS-7.

[3] abbreviates: AP fused Amino-Nogo fragments in conditioned media on NgR expressing COS-7 cells, 'No binding at' cells continue on the next line: AmNg A 150 nM, a.a. 1000-1018, a.a. 1005-1018, Amino of NgC 25 nM, a.a. 950-1004 50 nM, Amino of NgB 100 nM.

B1: a.a. 877-1018 (AmNg B4): AP fusion protein of Amino-Nogo fragment B4, aa 877-1018 (protein)
chain: SKTDSFSKLAREYTDLEVSHKSEIANAPDGAGSLPCTELPHDLSLKNIQPKVEEKISFSDDFSKNGSATSKVLLLPPDVSALATQAEIESIVKPKVLVKEAEKKLPSDTEKEDRSPSAIFSAELSKTSVVDLLYWRDIKKTG
modifications: left off: large carriers
In the assay with NgR (setting [3]), B1 displayed a dissociation constant (Kd) of 9.01 ± 6.36 nM.

B2: human NgR1 alanine mutant 117, 119, 120, 139 (receptor)
chain: CPGACVCYNEPKVTTSCPQQGLQAVPVGIPAASQRIFLHGNRISHVPAASFRACRNLTILWLHSNVLARIDAAAFTGLALLEQLDLSDNAALAAVDPATFHGLGRLHTLHLDACGLQELGPGLFRGLAALQYLYLQDNALQALPDDTFRDLGNLTHLFLHGNRISSVPERAFRGLHSLDRLLLHQNRVAHVHPHAFRDLGRLMTLYLFANNLSALPTEALAPLRALQYLRLNDNPWVCDCRARPLWAWLQKFRGSSSEVPCSLPQRLAGRDLKRLAANDLQGCAVATGPYHPIWTGRATDEEPLGLPKCCQPDAADKASVLEPGRPASAGNALKGRVPPGDSPPGNGSGPRHINDSPFGTLPGSAEPPLTAVRPEGSEPPGFPTSGPRRRPGCSRKNRTRSHCRLGQAGSGGGGTGDSEGSGALPSLTCSLTPLGLALVLWTVLGPC
Regarding B2, the “ligand binding category of NgR mutant (Table II)” value (from here on “ligand binding category”) in the assay on NgR ligands is listed as “No binding”. In addition, the binding result (in the assay with AP-Nogo-66; in assay [1]; in assay [2]) was “no binding” each time.

B3: human NgR1 alanine mutant 95, 97, 117, 119, 120, 188, 189 (receptor)
chain: CPGACVCYNEPKVTTSCPQQGLQAVPVGIPAASQRIFLHGNRISHVPAASFRACRNLTILWLHSNVLAAIAAAAFTGLALLEQLDLSDNAALAAVDPATFHGLGRLHTLHLDRCGLQELGPGLFRGLAALQYLYLQDNALQALPDDTFRDLGNLTHLFLHGAAISSVPERAFRGLHSLDRLLLHQNRVAHVHPHAFRDLGRLMTLYLFANNLSALPTEALAPLRALQYLRLNDNPWVCDCRARPLWAWLQKFRGSSSEVPCSLPQRLAGRDLKRLAANDLQGCAVATGPYHPIWTGRATDEEPLGLPKCCQPDAADKASVLEPGRPASAGNALKGRVPPGDSPPGNGSGPRHINDSPFGTLPGSAEPPLTAVRPEGSEPPGFPTSGPRRRPGCSRKNRTRSHCRLGQAGSGGGGTGDSEGSGALPSLTCSLTPLGLALVLWTVLGPC
As to B3, in the assay with NgR ligands, the “ligand binding category” value is given as “No binding”. Also, the binding result (with AP-Nogo-66; in assay [1]; in assay [2]) was “no binding” in each case.

B4: human NgR1 alanine mutant 202, 205, 227, 250, 277, 279 (receptor)
chain: CPGACVCYNEPKVTTSCPQQGLQAVPVGIPAASQRIFLHGNRISHVPAASFRACRNLTILWLHSNVLARIDAAAFTGLALLEQLDLSDNAQLRSVDPATFHGLGRLHTLHLDRCGLQELGPGLFRGLAALQYLYLQDNALQALPDDTFRDLGNLTHLFLHGNRISSVPERAFRGLASLARLLLHQNRVAHVHPHAFRDLGALMTLYLFANNLSALPTEALAPLAALQYLRLNDNPWVCDCRARPLWAWLQAFAGSSSEVPCSLPQRLAGRDLKRLAANDLQGCAVATGPYHPIWTGRATDEEPLGLPKCCQPDAADKASVLEPGRPASAGNALKGRVPPGDSPPGNGSGPRHINDSPFGTLPGSAEPPLTAVRPEGSEPPGFPTSGPRRRPGCSRKNRTRSHCRLGQAGSGGGGTGDSEGSGALPSLTCSLTPLGLALVLWTVLGPC
As for B4, the “ligand binding category” value with NgR ligands is given as “No binding”. For the same molecule, the binding result (in the assay with AP-Nogo-66; in assay [1]; in assay [2]) was “no binding” throughout.

B5: human NgR1 alanine mutant 95, 97, 188, 189, 191, 192 (receptor)
chain: CPGACVCYNEPKVTTSCPQQGLQAVPVGIPAASQRIFLHGNRISHVPAASFRACRNLTILWLHSNVLAAIAAAAFTGLALLEQLDLSDNAQLRSVDPATFHGLGRLHTLHLDRCGLQELGPGLFRGLAALQYLYLQDNALQALPDDTFRDLGNLTHLFLHGAAIAAVPERAFRGLHSLDRLLLHQNRVAHVHPHAFRDLGRLMTLYLFANNLSALPTEALAPLRALQYLRLNDNPWVCDCRARPLWAWLQKFRGSSSEVPCSLPQRLAGRDLKRLAANDLQGCAVATGPYHPIWTGRATDEEPLGLPKCCQPDAADKASVLEPGRPASAGNALKGRVPPGDSPPGNGSGPRHINDSPFGTLPGSAEPPLTAVRPEGSEPPGFPTSGPRRRPGCSRKNRTRSHCRLGQAGSGGGGTGDSEGSGALPSLTCSLTPLGLALVLWTVLGPC
As for B5, the “ligand binding category” value with NgR ligands was “No binding”. The binding result (with AP-Nogo-66; in assay [1]; in assay [2]) was “no binding” in each case.

B6: AP-B4C-66: AP fusion protein with the B4C fragment of Amino-Nogo-A fused directly to Nogo-66 (protein)
chain: LLPPDVSALATQAEIESIVKPKVLVKEAEKKLPSDTEKEDRSPSAIFSAELSKTSVVDLLYWRDIKKTGRIYKGVIQAIQKSDEGHPFRAYLESEVAISEELVQKYSNSALGHVNCTIKELRRLFLVDDLVDSLK
modifications: left off: large carriers
In the case of B6, the “Kd for binding of AP-B4C-66 to NgR” value in the assay with NgR (NgR expressing COS-7 cells, FIGS. 6A and 6B) is “subnanomolar”.

B7: Amino of NgB: AP fusion protein of Amino-Nogo residues of Nogo-B (protein)
chain: MEDLDQSPLVSSSDSPPRPQPAFKYQFVREPEDEEEEEEEEEEDEDEDLEELEVLERKPAAGLSAAPVPTAPAAGAPLMDFGNDFVPPAPRGPLPAAPPVAPERQPSWDPSPVSSTVPAPSPLSAAAVSPSKLPEDDEPPARPPPPPPASVSPQAEPVWTPPAPAPAAPPSTPAAPKRRGSSGSVVVDLLYWRDIKKTG
modifications: left off: large carriers
notes: AP fusion protein of Amino-Nogo residues of Nogo-B
With B7, the “NgR Kd (nM)” value with NgR (setting [3]) is recorded as “No binding”. Also, the “binding to NgR (COS-7 cells expressing NgR)” value with NgR (qualitative) is recorded as “fail to associate with NgR-expressing cells”.
